The target of the assay is T1, DREB2A full-length fused to a YFP fragment (BiFC construct in pBI221) (Arabidopsis thaliana, UniProt O82132 1-335).
T1 construct: domain: full-length; Transiently expressed in Arabidopsis protoplasts, MG132 added to stabilise DREB2A; not shown: N-terminal or C-terminal half of YFP
The experiment in a line: BiFC (split YFP), transient expression in Arabidopsis protoplasts. How it is done: Transient expression analysis using protoplasts from Arabidopsis thaliana mesophyll cells was conducted in accordance with the method of Yoo et al. [Yoo et al., Nat. Protoc., Vol. 2, pp. 1565-1572 ([…])]. To offer a brief explanation, the gene was introduced into the protoplast; after standing for 14 hours, MG132, a proteasome inhibitor, was added to make a final concentration of 50 μM to stabilize the DREB2A in the plant. After standing for another 4 hours, the YFP fluorescence was examined.
Specifically, two plasmids containing DREB2A and Arabidopsis thaliana NF-YC10 were produced by amplifying full-length cDNA of DREB2A and full-length cDNA of Arabidopsis thaliana NF-YC10 by PCR and attaching each to either pBI221 [Qin et al., Plant Cell, Vol. 20, pp. 1693-1707 (2008)] which is an expression vector containing cDNA encoding the N terminal side or C terminal side of YFP, and a transient expression analysis study of both plasmids was conducted. Furthermore, one transferred from Feng Qin Ph.D. (Japan International Research Center for Agricultural Sciences, Japan) was used as the DREB2A full-length cDNA-ligated pBI221 plasmid. Full-length cDNA of Arabidopsis thaliana NF-YC10 was produced by amplification by PCR using the following primer pair and introduction at the XbaI/ClaI site of the above expression vector.

T1 sequence (O82132 whole entry, the tested form may be a part): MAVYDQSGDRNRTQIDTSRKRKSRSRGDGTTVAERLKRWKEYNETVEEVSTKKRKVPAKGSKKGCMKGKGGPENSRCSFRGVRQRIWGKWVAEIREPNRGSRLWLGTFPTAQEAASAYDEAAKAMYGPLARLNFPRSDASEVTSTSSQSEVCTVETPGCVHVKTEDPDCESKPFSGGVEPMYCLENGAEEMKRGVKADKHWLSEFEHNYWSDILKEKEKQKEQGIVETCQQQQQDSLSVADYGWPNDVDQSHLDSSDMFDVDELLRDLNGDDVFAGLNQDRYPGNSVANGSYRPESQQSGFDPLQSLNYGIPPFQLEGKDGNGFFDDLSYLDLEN

B1: Arabidopsis thaliana NF-YC10 full-length fused to a YFP fragment (BiFC construct in pBI221) (other)
chain: MVSSKKPKEKKARSDVVVNKASGRSKRSSGSRTKKTSNKVNIVKKKPEIYEISESSSSDSVEEAIRGDEAKKSNGVVSKRGNGKSVGIPTKTSKNREEDDGGAEDAKIKFPMNRIRRIMRSDNSAPQIMQDAVFLVNKATEMFIERFSEEAYDSSVKDKKKFIHYKHLSSVVSNDQRYEFLADSVPEKLKAEAALEEWERGMTDAG
notes: Transiently expressed in Arabidopsis thaliana mesophyll protoplasts; not shown: N-terminal or C-terminal half of YFP
Consider B1, for which the binding result is recorded as “binds”.

The values above are taken from patent US20150128304A1 (UNIVERSITY OF TOKYO, published 2015).
